What was measured:
Test in all cases: cell-based or functional assay
PDGFRβ (h) (human) = PDGFRβ (h) (human) (UniProt P09619)
PKD2 (h) (human) = molecular target: T1, PKD2 (h) (human) (UniProt Q9BZL6)
T1 sequence (looked up): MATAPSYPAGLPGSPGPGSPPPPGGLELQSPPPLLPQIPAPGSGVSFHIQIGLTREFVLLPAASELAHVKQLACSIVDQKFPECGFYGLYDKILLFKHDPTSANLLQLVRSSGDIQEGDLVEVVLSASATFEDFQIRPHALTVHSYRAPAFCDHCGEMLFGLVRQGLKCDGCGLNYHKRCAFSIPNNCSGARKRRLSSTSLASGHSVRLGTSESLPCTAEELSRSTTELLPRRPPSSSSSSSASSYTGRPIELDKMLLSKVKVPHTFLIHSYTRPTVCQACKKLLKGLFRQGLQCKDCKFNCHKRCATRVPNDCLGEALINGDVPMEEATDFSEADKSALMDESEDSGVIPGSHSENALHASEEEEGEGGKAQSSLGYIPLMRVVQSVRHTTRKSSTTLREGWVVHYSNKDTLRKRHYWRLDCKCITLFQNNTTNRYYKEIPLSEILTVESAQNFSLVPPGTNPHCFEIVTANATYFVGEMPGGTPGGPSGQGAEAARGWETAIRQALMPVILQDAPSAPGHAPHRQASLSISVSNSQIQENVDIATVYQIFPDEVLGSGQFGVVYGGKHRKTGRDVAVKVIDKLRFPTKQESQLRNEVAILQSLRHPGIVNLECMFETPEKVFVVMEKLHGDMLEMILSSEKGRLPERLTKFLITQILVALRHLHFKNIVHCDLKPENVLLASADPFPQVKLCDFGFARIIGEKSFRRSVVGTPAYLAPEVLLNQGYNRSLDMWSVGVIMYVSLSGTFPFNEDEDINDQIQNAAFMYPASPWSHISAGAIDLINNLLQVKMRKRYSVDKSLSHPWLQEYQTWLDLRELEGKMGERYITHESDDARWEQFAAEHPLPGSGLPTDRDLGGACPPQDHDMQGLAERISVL

SGK2 (h) (human) = molecular target: T2, SGK2 (h) (human) (UniProt Q9HBY8)
T2 sequence (looked up): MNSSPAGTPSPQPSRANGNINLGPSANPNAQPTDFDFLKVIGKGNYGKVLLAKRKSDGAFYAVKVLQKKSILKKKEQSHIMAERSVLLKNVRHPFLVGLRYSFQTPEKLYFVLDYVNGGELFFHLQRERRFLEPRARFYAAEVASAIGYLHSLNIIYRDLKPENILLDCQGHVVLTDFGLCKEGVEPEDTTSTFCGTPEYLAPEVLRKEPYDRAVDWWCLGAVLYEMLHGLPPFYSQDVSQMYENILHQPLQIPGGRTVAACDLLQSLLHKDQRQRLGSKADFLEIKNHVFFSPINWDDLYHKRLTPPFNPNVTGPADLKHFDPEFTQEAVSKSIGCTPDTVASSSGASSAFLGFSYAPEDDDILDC

[1] = molecular target: IR (h), activated (human) (UniProt P06213)
IR (h), activated (human), sequence (P06213 1005-1310 limits assumed): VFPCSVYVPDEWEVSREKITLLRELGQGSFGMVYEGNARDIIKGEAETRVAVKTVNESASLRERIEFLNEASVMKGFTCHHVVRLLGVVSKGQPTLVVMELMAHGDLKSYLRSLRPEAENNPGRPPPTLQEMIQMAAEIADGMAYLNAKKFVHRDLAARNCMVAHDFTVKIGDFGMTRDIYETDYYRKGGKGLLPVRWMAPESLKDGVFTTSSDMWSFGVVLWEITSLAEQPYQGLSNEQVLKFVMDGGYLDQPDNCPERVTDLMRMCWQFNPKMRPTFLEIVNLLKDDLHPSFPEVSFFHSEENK

SAPK4 (h) (human) = molecular target: T3, SAPK4 (h) (human) (UniProt O15264)
T3 sequence (looked up): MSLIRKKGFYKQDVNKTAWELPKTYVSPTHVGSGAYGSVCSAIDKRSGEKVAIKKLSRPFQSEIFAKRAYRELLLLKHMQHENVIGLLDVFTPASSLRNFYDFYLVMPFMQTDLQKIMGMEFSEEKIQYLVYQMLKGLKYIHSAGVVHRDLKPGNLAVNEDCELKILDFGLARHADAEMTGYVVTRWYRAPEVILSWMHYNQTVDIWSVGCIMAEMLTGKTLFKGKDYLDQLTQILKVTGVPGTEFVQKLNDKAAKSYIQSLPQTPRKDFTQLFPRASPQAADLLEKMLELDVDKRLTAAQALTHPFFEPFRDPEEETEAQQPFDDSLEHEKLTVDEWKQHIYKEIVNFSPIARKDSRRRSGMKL

TAO1 (h) (human) = molecular target: T4, TAO1 (h) (human) (UniProt Q7L7X3)
T4 sequence (looked up): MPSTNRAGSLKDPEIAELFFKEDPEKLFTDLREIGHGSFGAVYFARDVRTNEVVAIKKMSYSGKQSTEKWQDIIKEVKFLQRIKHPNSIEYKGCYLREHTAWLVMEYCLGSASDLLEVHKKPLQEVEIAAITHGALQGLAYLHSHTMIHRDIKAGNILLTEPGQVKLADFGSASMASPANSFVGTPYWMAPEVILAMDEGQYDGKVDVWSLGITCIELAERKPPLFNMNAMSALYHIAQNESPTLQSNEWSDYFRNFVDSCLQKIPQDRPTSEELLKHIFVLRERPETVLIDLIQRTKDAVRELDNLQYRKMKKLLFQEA

[2] = molecular target: PDGFRα (V561D) (h) (human) (UniProt P16234)
PDGFRα (V561D) (h) (human), sequence (P16234 550-1089 V561D limits assumed): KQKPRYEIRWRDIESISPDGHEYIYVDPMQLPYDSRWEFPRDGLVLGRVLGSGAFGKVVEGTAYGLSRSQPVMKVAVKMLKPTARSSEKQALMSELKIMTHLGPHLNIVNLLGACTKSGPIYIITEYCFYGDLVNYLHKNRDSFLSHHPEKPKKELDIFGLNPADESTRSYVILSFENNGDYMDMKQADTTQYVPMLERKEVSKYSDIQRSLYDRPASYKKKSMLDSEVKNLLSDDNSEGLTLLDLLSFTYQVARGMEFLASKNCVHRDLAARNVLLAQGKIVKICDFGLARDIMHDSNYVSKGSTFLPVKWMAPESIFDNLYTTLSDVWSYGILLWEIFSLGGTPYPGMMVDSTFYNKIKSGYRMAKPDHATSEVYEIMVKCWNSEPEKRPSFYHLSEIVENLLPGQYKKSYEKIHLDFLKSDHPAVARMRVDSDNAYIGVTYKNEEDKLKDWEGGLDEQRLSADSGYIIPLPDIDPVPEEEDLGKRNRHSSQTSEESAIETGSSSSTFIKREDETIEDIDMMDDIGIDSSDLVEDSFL

JAK2 (h) (human) = JAK2 (h) (human) (UniProt O60674)
BTK(R28H) (h) (human) = BTK(R28H) (h) (human) (UniProt Q06187)
Flt3 (h) (human) = molecular target: T5, Flt3 (h) (human) (UniProt P36888)
T5 sequence (looked up): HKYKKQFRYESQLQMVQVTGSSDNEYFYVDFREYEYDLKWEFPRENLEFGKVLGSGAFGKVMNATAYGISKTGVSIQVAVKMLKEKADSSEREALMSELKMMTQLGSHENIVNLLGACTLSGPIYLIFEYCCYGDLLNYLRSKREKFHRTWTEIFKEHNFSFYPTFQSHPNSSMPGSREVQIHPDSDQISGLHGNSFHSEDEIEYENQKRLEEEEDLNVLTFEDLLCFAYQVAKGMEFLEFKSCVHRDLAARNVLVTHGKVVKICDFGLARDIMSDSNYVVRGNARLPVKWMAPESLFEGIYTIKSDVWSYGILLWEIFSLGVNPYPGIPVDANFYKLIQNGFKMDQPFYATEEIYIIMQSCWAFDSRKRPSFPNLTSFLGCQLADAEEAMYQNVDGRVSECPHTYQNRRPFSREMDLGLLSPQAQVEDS

PDGFRβ (h) (human), sequence (P09619 557-1106 limits assumed): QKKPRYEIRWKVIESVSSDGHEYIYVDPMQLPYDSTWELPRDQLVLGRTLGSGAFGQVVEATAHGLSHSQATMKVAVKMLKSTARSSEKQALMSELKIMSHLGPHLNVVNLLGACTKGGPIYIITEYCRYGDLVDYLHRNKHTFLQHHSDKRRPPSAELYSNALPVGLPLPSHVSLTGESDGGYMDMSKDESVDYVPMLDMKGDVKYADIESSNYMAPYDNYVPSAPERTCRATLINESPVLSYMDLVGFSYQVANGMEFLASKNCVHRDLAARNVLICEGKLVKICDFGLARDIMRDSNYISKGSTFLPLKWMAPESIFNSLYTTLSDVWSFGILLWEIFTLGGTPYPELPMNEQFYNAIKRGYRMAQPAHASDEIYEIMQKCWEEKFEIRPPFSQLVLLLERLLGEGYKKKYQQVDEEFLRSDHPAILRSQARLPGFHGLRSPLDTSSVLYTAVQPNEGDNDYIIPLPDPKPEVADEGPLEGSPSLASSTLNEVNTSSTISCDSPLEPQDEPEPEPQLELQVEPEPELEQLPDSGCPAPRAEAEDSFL

% activity at 100 µM (PDGFRβ (h) (human)): 81%
% activity at 100 µM (PKD2 (h) (human)): 33%
% activity at 100 µM (SGK2 (h) (human)): 56%
% activity at 100 µM [1]: 79%
% activity at 100 µM (SAPK4 (h) (human)): 96%
% activity at 100 µM (TAO1 (h) (human)): 82%
% activity at 100 µM [2]: 82%
% activity at 100 µM (JAK2 (h) (human)): 133%
% activity at 100 µM (BTK(R28H) (h) (human)): 74%
% activity at 100 µM (Flt3 (h) (human)): 84%
Substance: MMI-0300 (peptide)
